In patent US9518084B2, “Epitope tag for affinity-based applications” (VIB VZW, priority 2010, dated 2016):

B1: NbSyn1a: Nanobody that specifically binds to α-synuclein, 126 amino acids, SEQ ID NO:24 (protein)
VHH: EVQLVESGGGSVQAGGSLSLACAPSGLNASSYCMGWFRQSPGKEREGVARINGNAGIKTAYADSVKDRFTLSRDNAKNTVYLQMNSLKAEDSAIYFCAAKSSPGYCGGNWDNFGYWGQGTQVTVSS
modifications: Nb_Syn1a
B2: biNbSyn2: bivalent version of NbSyn2 (SEQ ID NO:68) with a GGGGSGGGS linker between both NbSyn2 sequences (protein)
chain: QVQLVESGGGSVQAGGSLRLSCAASGIDSSSYCMGWFRQRPGKEREGVARINGLGGVKTAYADSVKDRFTISRDNAENTVYLQMNSLKPEDTAIYYCAAKFSPGYCGGSWSNFGYWGQGTQVTVSSGGGGSGGGSQVQLQESGGGSVQAGGSLRLSCAASGIDSSSYCMGWFRQRPGKEREGVARINGLGGVKTAYADSVKDRFTISRDNAENTVYLQMNSLKPEDTAIYYCAAKFSPGYCGGSWSNFGYWGQGTQVTVSSHHHHHH
modifications: Nanobody biNbSyn2

Experiments:
[1] = tested on: EPEA (SEQ ID NO:1)-tagged Rev protein; test: In vivo detection of EPEA-tagged Rev in transfected HeLa cells by confocal microscopy; format: cell-based, HIV; settings: nanobody fused to mKO1 or GFP, GYQDYEPEA and EPEA tags
From the text: In another set of experiments, we explored the use of the EPEA (SEQ ID NO:1) tag to detect/visualize the expression of recombinant proteins within a (living) eukaryotic cell. […] Cells that are double-transfected with Rev-[sequence] (SEQ ID NO:10) or Rev-[sequence]
The two different tags [sequence] (SEQ ID NO:2) and EPEA (SEQ ID NO:1) were C-terminal fused to Rev by PCR using Takara Ex Taq polymerase (TAKARA BIO INC).
HeLa, human epithelial cells were maintained using standard procedures until confluent in DMEM medium with 10% fetal calf serum. For transfection of plasmid DNA in HeLa, cells were harvested by a Trypsin/EDTA treatment, counted and plated onto glass bottom microwell dishes (MatTek corporation). Transfections were preformed according to manufacturer's manual: the 4×10^5 cells were seeded in a 35 mm dish. […]
Transfected HeLa cells were imaged with a laser scanning SP5 confocal microscope (Leica Microsystems) equipped with an AF 6000 microscope and an AOBS, using a HCX PL APO×63 (NA 1.2) water immersion objective magnification. GFP was monitored with the Ar laser using the 488-nm line for excitation, and emission was detected between 492 and 570 nm. mKusabira orange fluorescent protein (mKO) was imaged using the DPSS-561 nm laser for excitation, and emission was detected between 570 and 675 nm.

[2] = tested on: Nb458-gaaEPEA (SEQ ID NO:8); test: Solid phase ELISA, bivalent versus monovalent NbSyn2 alkaline phosphatase conjugate; format: binding; settings: alkaline phosphatase conjugates, dilutions 1/250 to 1/4000, OD405
Sequence of Nb458-gaaEPEA (SEQ ID NO:8) (as listed by the source): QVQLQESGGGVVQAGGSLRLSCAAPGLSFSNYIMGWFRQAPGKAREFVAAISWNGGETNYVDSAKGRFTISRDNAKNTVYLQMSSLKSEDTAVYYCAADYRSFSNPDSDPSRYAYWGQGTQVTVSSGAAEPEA

Row | Molecule | Recognition of tagged Rev in double-transfected cells (colocalization in the nucleus) [1] | Sensitivity of ELISA detection compared with monovalent NbSyn2-AP conjugate [2]
1 | B1 | recognized in vivo | –
2 | B2 | – | sensitivity of detection increases
